Assays:
[1] = molecular target: L3 (DV1-GV8), soluble leucine zipper γδ TCR heterodimer of a delta variable 1 chain and a gamma variable 8 … (human); experiment: DELFIA ELISA, coated antigen;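 further: binding of antibody supernatants or protein-A purified antibodies to plate-coated antigen (3 µg/ml recombinant TCR or BSA), 1 h incubation at room temperature, DELFIA readout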
Protocol: (§1) A DELFIA ELISA binding method was also employed to assess binding of antibody supernatants or further protein-A purified antibody. In brief, MaxiSorp plates were coated with 3 μg/ml of antigen BSA or L1 (DV1-GV4), L2 (DV1-GV2), L3 (DV1-GV8), or L4 (DV2-GV4) recombinant TCR antigen. Plates were then washed with PBS, blocked with PBS/skimmed milk and then test article added and incubated for 1 hour at room temperature.

BSA = molecular target: T1, BSA (bovine, UniProt P02769); experiment: DELFIA ELISA, coated antigen;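 further: binding of antibody supernatants or protein-A purified antibodies to plate-coated antigen (3 µg/ml recombinant TCR or BSA), 1 h incubation at room temperature, DELFIA readout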
T1 construct: coated at 3 µg/ml; also called bovine serum albumin, control antigen of the DELFIA ELISA
Protocol: as §1

[2] = molecular target: T2, L1 (DV1-GV4), soluble leucine zipper γδ TCR heterodimer of a delta variable 1 chain and a gamma variable 4 … (human); experiment: DELFIA ELISA, coated antigen;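 further: binding of antibody supernatants or protein-A purified antibodies to plate-coated antigen (3 µg/ml recombinant TCR or BSA), 1 h incubation at room temperature, DELFIA readout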
T2 construct: also called bt-L1; not shown: histidine tag/linker said to follow the zipper

[3] = molecular target: L2 (DV1-GV2), soluble leucine zipper γδ TCR heterodimer of a delta variable 1 chain and a gamma variable 2 … (human); experiment: DELFIA ELISA, coated antigen;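 further: binding of antibody supernatants or protein-A purified antibodies to plate-coated antigen (3 µg/ml recombinant TCR or BSA), 1 h incubation at room temperature, DELFIA readout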
Protocol: as §1

[4] = molecular target: T2, L1 (DV1-GV4), soluble leucine zipper γδ …; experiment: SPR (Reichert 4SPR), L1 coupled to chip, IgG1 flowed, steady state 1:1 fit; experiment 2
Protocol: (§2) In brief, the binding affinity of the antibodies to target (i.e. the human Vγ4 chain of a γδ TCR) was established by SPR analysis using a Reichert 4SPR instrument (Reichert Technologies). […] All experiments were performed at room temperature, with the samples kept at 4° C. before flowing over the chip. Steady state fitting was determined according to Langmuir 1:1 binding using software TraceDrawer (Reichert Technologies).

[5] = molecular target: T2, L1 (DV1-GV4), soluble leucine zipper γδ …; experiment: SPR (Reichert 4SPR), L1 coupled to chip, IgG1 flowed, steady state 1:1 fit; experiment 1
Protocol: as §2

[6] = molecular target: T2, L1 (DV1-GV4), soluble leucine zipper γδ …; experiment: SPR (Reichert 4SPR), L1 coupled to chip, IgG1 flowed, steady state 1:1 fit; average
Protocol: as §2

Sequence of L3 (DV1-GV8), soluble leucine zipper γδ TCR heterodimer of a delta variable 1 chain and a gamma variable 8 … (human) (chain, as listed by the source mutant, chain 1 of 2): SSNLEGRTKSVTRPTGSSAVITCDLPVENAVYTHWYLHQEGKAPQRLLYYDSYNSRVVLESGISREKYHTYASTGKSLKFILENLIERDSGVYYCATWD
Sequence of L3 (DV1-GV8), soluble leucine zipper γδ TCR heterodimer of a delta variable 1 chain and a gamma variable 8 … (human) (chain, as listed by the source mutant, chain 2 of 2): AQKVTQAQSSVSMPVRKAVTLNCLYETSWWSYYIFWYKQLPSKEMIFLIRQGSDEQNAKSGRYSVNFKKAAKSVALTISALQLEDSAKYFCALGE
Sequence of L2 (DV1-GV2), soluble leucine zipper γδ TCR heterodimer of a delta variable 1 chain and a gamma variable 2 … (human) (chain, as listed by the source mutant, chain 1 of 2): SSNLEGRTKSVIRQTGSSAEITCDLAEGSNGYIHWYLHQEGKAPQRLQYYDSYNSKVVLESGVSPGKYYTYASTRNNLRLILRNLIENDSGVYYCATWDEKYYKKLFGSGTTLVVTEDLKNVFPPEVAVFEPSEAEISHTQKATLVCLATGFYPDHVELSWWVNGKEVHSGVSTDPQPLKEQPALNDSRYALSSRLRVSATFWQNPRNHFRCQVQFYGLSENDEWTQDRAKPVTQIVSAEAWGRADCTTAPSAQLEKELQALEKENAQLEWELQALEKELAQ
Sequence of L2 (DV1-GV2), soluble leucine zipper γδ TCR heterodimer of a delta variable 1 chain and a gamma variable 2 … (human) (chain, as listed by the source mutant, chain 2 of 2): as the sequence (chain, as listed by the source mutant, chain 2 of 2) above
T2 sequence (main, as listed by the source, chain 1 of 2): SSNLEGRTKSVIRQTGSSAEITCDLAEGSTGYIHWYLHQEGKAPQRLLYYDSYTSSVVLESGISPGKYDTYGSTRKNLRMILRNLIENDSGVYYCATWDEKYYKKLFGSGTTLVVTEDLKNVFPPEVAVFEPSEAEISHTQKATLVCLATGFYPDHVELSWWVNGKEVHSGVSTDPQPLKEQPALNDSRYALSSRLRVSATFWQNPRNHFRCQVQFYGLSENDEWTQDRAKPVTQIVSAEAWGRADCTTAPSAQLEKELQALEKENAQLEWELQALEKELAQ
T2 sequence (main, as listed by the source, chain 2 of 2): as the sequence (chain, as listed by the source mutant, chain 2 of 2) above
T1 sequence (P02769 25-607 limits assumed): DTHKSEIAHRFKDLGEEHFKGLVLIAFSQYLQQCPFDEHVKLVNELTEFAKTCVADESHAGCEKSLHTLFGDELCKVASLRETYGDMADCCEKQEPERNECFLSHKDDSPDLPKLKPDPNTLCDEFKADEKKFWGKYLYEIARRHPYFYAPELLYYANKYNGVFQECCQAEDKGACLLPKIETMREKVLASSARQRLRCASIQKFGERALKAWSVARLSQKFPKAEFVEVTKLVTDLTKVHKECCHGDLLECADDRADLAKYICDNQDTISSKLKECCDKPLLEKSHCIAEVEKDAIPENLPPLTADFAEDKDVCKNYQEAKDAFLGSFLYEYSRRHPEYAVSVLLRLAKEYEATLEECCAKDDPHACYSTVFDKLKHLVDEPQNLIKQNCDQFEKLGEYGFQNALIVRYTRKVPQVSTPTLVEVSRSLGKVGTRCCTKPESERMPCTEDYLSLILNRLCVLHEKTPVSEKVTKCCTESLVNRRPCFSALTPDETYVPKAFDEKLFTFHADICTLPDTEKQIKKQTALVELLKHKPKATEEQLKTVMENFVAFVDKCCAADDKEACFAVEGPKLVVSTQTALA

Row | DELFIA ELISA response (FU) [1] | DELFIA ELISA response (FU) (BSA) | binding result (BSA) | DELFIA ELISA response (FU) [2] | DELFIA ELISA response (FU) [3] | Kd [4] | Kd [5] | Kd [6] | Binder
1 | 270 FU | 78 FU | no binding | 196000 FU | 94 FU | – | – | – | G4_13 (antibody, human IgG1, V domains shown, also called clone G4_13) VH: QVQLVESGAEVKKPGGSLRLSCAASGFTFSSYSMNWVRQAPGKGLEWVSSISGTSSYIYYADSVKGRFTISRDNAKNSLYLQMSSLRAEDTAVYYCARGGLGMVDPWGQGTLVTVSS VL: SNFMLTQPHSVSESPGKTVTISCTRSSGSIASNYVQWYQQRPGSSPSTVIYEDNQRPSGVPDRFSGSIDSSSNSASLTISGLRTEDEADYYCQSYDSSIYVVFGGGTKLTVLG
2 | 984 FU | 65 FU | no binding | 227000 FU | 576 FU | – | – | – | G4_28 (antibody, human IgG1, V domains shown, also called clone G4_28) VH: QVQLVESGGGLVQPGGSLRLSCAASGFTFDDYAMHWVRQAPGKGLEWVSGISAGGGSTNYAGSVKGRFTVSRDTSKNTLYLQMNSLRAEDTAVYYCVKSYVDTAMRYYYYYMDVWGQGTMVTVSS VL: SSYELTQDPAVSVALGQTVTITCQGDSLRNYYASWYRQKPGQTPVLVVYGKNNRPSGIPDRFSVSASGNTASLTITGAQAEDEGDYYCNSRDSSGVVFGGGTKVTVLG
3 | 980 FU | 47 FU | no binding | 109000 FU | 567 FU | – | – | – | G4_22 (antibody, human IgG1, V domains shown, also called clone G4_22) VH: QVQLVESGGGLVQPGGSLRLSCAASGFTFSTYAMSWVRQAPGKGLEWVSTVSGSGGTTYYADSVKGRFTISRDNSKNTLYLQMNSLRAEDTAVYYCAKDSTAVTDWFDPWGRGTLVTVSS VL: DIQMTQSPSSLSASVGDRVTITCQASQDISNYLNWYQQKPGKAPKLLIYAASSLQSGVPSRFSVSGSGTDFTLTISNLQPEDFATYYCQQSYSIPWTFGQGTKVEIKR
4 | 239 FU | 88 FU | no binding | 213000 FU | 216 FU | 2.03 nM | 3.69 nM | 2.86 nM | G4_3 (antibody, human IgG1, V domains shown, also called 1139_P01_A04; G4_03) VH: EVQLVESGGGLVQPGGSLRLSCAASGFTFSSYSMNWVRQAPGKGLEWVSSISSSSSYIYYADSVKGRFTISRDNSKNTLYLQMNSLRAEDTAVYYCARGGWLYDYWGQGTLVTVSS VL: DIQMTQSPSSLSASVGDRVTITCQASQDISNYLNWYQQKPGKAPKLLIYDASNLETGVPSRFSGSGSGTDFTLTISSLQPEDFATYFCQQSYSTPQTFGQGTKVDIKR
5 | 244 FU | 78 FU | no binding | 202000 FU | 100 FU | – | – | – | G4_1 (antibody, human IgG1, V domains shown, also called clone G4_1) VH: EVQLLESGGGVVQPGRPLRLSCAASGFTFSSYSMNWVRQAPGKGLEWVSSISSSSSYIYYADSVKGRFTISRDNSKNTLYLQMNSLRAEDTAVYYCAKGHWYFDLWGRGTLVTVSS VL: DIQMTQSPSSLSASVGDRVTITCQASQDISNYLNWYQQKPGKAPKLLIYDASNLETGVPSRFSGSGSGTDFTLTISSLQPEDFATYYCQQSYSTPVTFGPGTKVEIKR
6 | 270 FU | 56 FU | no binding | 201000 FU | 86 FU | – | – | – | G4_2 (antibody, human IgG1, V domains shown, also called clone G4_2) VH: QMQLVQSGAEVKKPGATVKISCKVSGYPFTDYYIHWVQQAPGKGLEWMGLVDPEDGQSRSAERFQGRVTITADTSTDTAYMELSSLRSEDTAVYYCATFPVAGFYGMDVWGQGTLVTVSS VL: DIQMTQSPSSLSASVGDRVTITCQASQDISNYLNWYQQKPGKAPKLLIYAASSLQSGVPSRFSGSGSGTDFTLTISGLQPEDFATYYCLEDYNYLWTFGQGTKLEIKR
7 | 156 FU | 63 FU | no binding | 119000 FU | 844 FU | – | – | – | G4_15 (antibody, human IgG1, V domains shown, also called clone G4_15) VH: EVQLVQSEAEVKKPGASVKVSCKASGYTFTRHYMHWVRQAPGQGLEWMGLINPSGSSTVYAQKFQGRVTLTRDTSTSTDYMELSSLRSEDTAVYYCARDNSHLDQVWWFDPWGQGTLVTVSS VL: SQSALTQPASVSGSPGQSITISCTGTSSDVGGYNYVSWYQQHPGKAPKLMIYDVSNRPSGVSNRFSGSKSGNTASLTISGLQAEDEADYYCSSYGSGSVFGTGTKLTVLG
8 | 870 FU | 51 FU | no binding | 22800 FU | 680 FU | – | – | – | G4_26 (antibody, human IgG1, V domains shown, also called clone G4_26) VH: QVQLVQSGAEVKKPGSSVKVSCKASGGTFSSYAISWVRQAPGQGLEWMGGIIPIFGTANYAQKFQGRVTITADESTSTAYMELSSLRSEDTAVYYCASSRGSGWFPLGYWGQGTLVTVSS VL: SQSGLTQPASVSGSPGQSITISCTGTSSDVGSYNLVSWYQQHPGKAPKLMIYEVSKRPSGVSNRFSGSKSGNTASLTISGLQAEDEADYYCSSFGSGSIFGTGTKLTVLG
9 | 885 FU | 40 FU | no binding | 21700 FU | 486 FU | – | – | – | G4_25 (antibody, human IgG1, V domains shown, also called clone G4_25) VH: EVQLVESGAEVKKPGSSVKVSCKASGGTFSSYAISWVRQAPGQGLEWMGGIIPIFGTANYAQKFQGRVTITADKSTSTAYMELSSLRSEDTAVYYCARSLRDGYNYIGSLGYWGQGTLVTVSS VL: SQSALTQPRSVSGSPGQSVTISCTGTSSDVGGYNYVSWYQQHPGKAPKLMIYEVSNRPSGVSNRFSGSKSGNTASLTISGLQAEDEADYYCSSYGSGSVFGTGTKLTVLG
10 | 187 FU | 57 FU | no binding | 145000 FU | 109 FU | – | – | – | G4_10 (antibody, human IgG1, V domains shown, also called clone G4_10) VH: QVQLVESGGGVVQPGRPLRLSCAASGFTFSSYAMHWVRQAPGKGLEWVSAISGSGGSTYYADSVKGRFTISRDNSKNTLYLQMNSLRAEDTAVYYCAKDGAVDFWRNGMDVWGRGTLVTVSS VL: DIVMTQPPLSLPVTLGHPASISCKSSQSLEYSDGNTYLNWFQQRPGQSPRRLIYKVSNRDSGAPDRFSGSGSGTDFTLEISRVEAEDVGVYYCMQGTLWPPTFGQGTKVDIKR
11 | 229 FU | 135 FU | no binding | 208000 FU | 199 FU | – | – | – | G4_14 (antibody, human IgG1, V domains shown, also called clone G4_14) VH: EVQLVQSGAEVKKPGESLRISCKGSGYSFTSYWISWVRQMPGKGLEWMGRIDPSDSYTNYSPSFPGHVTISADKSISTAYLQWSSLKASDTAMYYCAADTAHGMDVWGRGTLVTVSS VL: SNFMLTQPHSVSESPGKTVTISCTRSRGSIAGNYVHWYQQRPGRAPTTVIYRDKERPSGVPDRISGSIDSSSNSASLTISGLKTEDEADYYCQSYDSSTHVVFGGGTKLTVLG
12 | – | 86 FU | no binding | 163000 FU | – | – | – | – | G4_5 (antibody, V domains shown, also called clone G4_5) VH: EVQLVQSGAEVKKPGSSVKVSCKASGYTFTSYGISWVRQAPGQGLEWMGWIGAYNGNTNYAQKLQGRVTMSTDTSTSTAYMELRSPRSDDTAVYYCARGGTGGDHVFAYWGQGTTVTVSS VL: not shown
13 | 190 FU | – | – | – | 90 FU | – | – | – | G4_4 (antibody, human IgG1, V domains shown, also called clone G4_4) VH: QVQLVESGGGLVQPGGSLRLSCAASGFTFSSYAMSWVRQAPGKGLEWVSAISGSGGSTYYADSVKGRFTISRDNSKNTLYLQMSSLRVEDTAVYYCAKSSVGWWSFDYWGQGTMVTVSS VL: not shown
14 | 960 FU | 53 FU | no binding | 154000 FU | 534 FU | – | – | – | G4_24 (antibody, human IgG1, V domains shown, also called clone G4_24) VH: QVQLQQSGPGLVKPSQTLSLTCAISGASVSSNSVAWNWIRQSPSRGLEWLGRTYYRSRWYNDYALSVKSRIIINPDTSKNQFSLQLNSVTPEDTAVYYCARDWSSTRSFDYWGRGTLVTVSS VL: not shown
15 | 192 FU | 55 FU | no binding | 142000 FU | 73 FU | – | – | – | G4_19 (antibody, human IgG1, V domains shown, also called clone G4_19) VH: EVQLVQSGAEVKKPGASVKVSCKASGYTLTSYYMHWVRQAPGQGLEWMGIINPSGGSTSYAQKFQGRVTMTRDTSTSTVYMELSSLRSEDTAVYYCARERGYSYGDGMDVWGQGTTVTVSS VL: SNFMLTQPHSVSESPGKTVTISCTRSSGSIASNYVQWYQQRPGSPPITLIYDDDQRPSGVPHRFSGSIDTSSNPASLTISGLKTEDEADYYCQSYDSSNHVVFGGGTKLTVLG
16 | 118 FU | 69 FU | no binding | 178000 FU | 84 FU | – | – | – | G4_16 (antibody, human IgG1, V domains shown, also called 1248_P02_D10; clone G4_16) VH: EVQLLESGAEVKKPGASVKVSCKASGYTFTSYGISWVRQAPGQGLEWMGWISAYNGNTNYAQKLQGRVTMTTDTSTSTAYMELRSLRSDDTAVYYCARDYGDFYGMDVWGQGTLVTVSS VL: SQSVLTQPPSASGSPGQSVTFSCTGTSSDIGAFNSVSWYQQHPGKAPKLLIYEITKRPSGVPDRFSGSKSGNTASLTISVLQAEDEADYYCTSYAGSNTLIFGGGTKVTVLG

— US20230090901A1 (GAMMADELTA THERAPEUTICS, published 2023)
